The values that follow come from PMC55327 (Genome Biology, 2001).

In series [1] the target is T1, *AatIβ (periplasmic aromatic aminotransferase) (Pseudomonas aeruginosa, UniProt Q9I0V2).
T1 sequence (Q9I0V2 29-374): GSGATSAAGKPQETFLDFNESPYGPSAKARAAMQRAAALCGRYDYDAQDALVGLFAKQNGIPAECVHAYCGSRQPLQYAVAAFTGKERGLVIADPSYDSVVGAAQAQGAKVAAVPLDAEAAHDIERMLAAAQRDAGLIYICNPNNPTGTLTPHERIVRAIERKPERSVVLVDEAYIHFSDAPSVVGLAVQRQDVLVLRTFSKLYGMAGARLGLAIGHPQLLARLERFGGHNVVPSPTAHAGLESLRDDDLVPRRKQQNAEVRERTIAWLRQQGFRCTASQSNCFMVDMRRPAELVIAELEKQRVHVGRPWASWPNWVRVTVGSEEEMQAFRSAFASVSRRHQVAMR
Briefly: aromatic aminotransferase activity assay. The series is classed as biochemical. To be noted: activity followed through purification.

For series [2], the system named is C=C(O[C@@H]1C=C(C(=O)O)C=C[C@H]1O)C(=O)O. Briefly: purified protein. The conditions noted are these: 32°C, 40–75 nM enzyme, 0.1 mg/ml bovine serum albumin. The series is classed as biochemical, Pantoea agglomerans.
The test system is the same in series [3]. Nature of the series: purified protein. The series is classed as biochemical, Salmonella enterica. The conditions noted are these: 32°C, 40–75 nM enzyme, 0.1 mg/ml bovine serum albumin.
Substrate in the series “purified protein”: C=C(O[C@@H]1C=C(C(=O)O)C=C[C@H]1O)C(=O)O
Nature of the series: purified protein. The series is classed as biochemical, Pseudomonas aeruginosa. To be noted: 32°C, 40–75 nM enzyme, 0.1 mg/ml bovine serum albumin.

Turning to `N[C@@H](Cc1ccccc1)C(=O)O` [phenylalanine], the “aromatic aminotransferase activity assay” value in series [1] (co-substrate α-ketoglutarate) is “phenylalanine and α-ketoglutarate were used as the substrates, unless indicated otherwise”.

For `O=C(O)CCC(=O)C(=O)O` [α-ketoglutarate], in series [1] (co-substrate phenylalanine), the “aromatic aminotransferase activity assay” value was “phenylalanine and α-ketoglutarate were used as the substrates, unless indicated otherwise”.

What is called Km is the concentration of substrate that gives half-maximal velocity. The kcat is the number of substrate molecules converted per active site and unit of time at saturation. On to “*AroQ (Erwinia herbicola periplasmic chorismate mutase) (Pantoea agglomerans)”, for which, in series [2], the Michaelis constant (Km) came to 169 µM and the kcat is 9.7 s⁻¹.

Consider “*AroQ (Salmonella typhimurium periplasmic chorismate mutase) (Salmonella enterica subsp. enterica serovar Typhimurium)”, for which, in series [3], the Michaelis-Menten constant (Km) amounted to 142 µM and the kcat turned out to be 8.9 s⁻¹.

B1: *AroQ (Pseudomonas aeruginosa periplasmic chorismate mutase) (Pseudomonas aeruginosa PAO1) (protein)
chain: QPLSPALQQLLSLSSQRLQLADQVAQSKAQSGKAVQDSPREEQQLQMLAGQAGSHGVGAEQVRLLFAAQIEANKLVQYRLLSRPLPDAGQAVDLERIRSRLNQLNLELLRGYAPALAELRVDDCRPRLNQALQRQVRVDRLDELHAIALSRAAGDLCHWAEL
Turning to B1, in “purified protein”, the kcat stood at 6.4 s⁻¹.
